The values below come from KR20140021799A (dated 2014).

This assay has as its target T1, CD2 항원 (Jurkat T 세포 / T 림프구 표면) (UniProt P06729 25-351, limits assumed).
T1 construct: whole, on cells; also called CD2-positive Jurkat T 세포
T1 sequence (looked up): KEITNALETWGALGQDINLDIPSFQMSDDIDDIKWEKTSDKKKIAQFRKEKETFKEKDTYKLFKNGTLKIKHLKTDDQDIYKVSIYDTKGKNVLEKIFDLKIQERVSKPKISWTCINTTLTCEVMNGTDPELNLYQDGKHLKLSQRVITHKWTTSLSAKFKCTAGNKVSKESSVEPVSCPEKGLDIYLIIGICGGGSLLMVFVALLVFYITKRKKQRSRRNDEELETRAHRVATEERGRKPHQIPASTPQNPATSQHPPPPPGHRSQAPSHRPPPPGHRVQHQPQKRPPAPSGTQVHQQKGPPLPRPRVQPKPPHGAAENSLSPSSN
In words: cell-based ELISA on Jurkat T cells, FcR blocker, anti-6X HIS tag-HRP detection. In general terms: In an ELISA, binding on a coated surface is turned into a signal by an enzyme label.

B1: anti-CD20 scFv-LFA3-1 (other)
chain: FSQQIYGTWKGDVTFHVPSNVPLKEVLWKKQKDKVAELENSEFRAFSDFKGRVYLDTVSGSLTINSLQSEDFGEYEMESPNITDTMKFFLYVLESLPSPTEFGGGGSGGSGSGGGQVQLQQPGAELVKPGASVKMSCKASGYTFTSYNMHWVKQTPGRGLEWIGAIYPGNGDTSYNQKFKGKATLTADKSSSTAYMQLSSLTSEDSAVYYCARSTYYGGDWYFNVWGAGTTVTVSAGGGGSGGGGSGGGGSQIVLSQSPAILSASPGEKVTMTCRASSSVSYIHWFQQKPGSSPKPWIYATSNLASGVPVRFSGSGSGTSYSLTISRVEAEDAATYYCQQWTSNPPTFGGGTKLEIK
For B1, the binding result is “binds”.
